The series is classed as physicochemical. Particulars: 10 mM PBS buffer (pH=7.4), 37° C., 100 rpm shaker; free drug by HPLC, average release per day. As for the experimental part:
The drug release and stability experiments were run using the test compounds. About 2.5±1.0 mg/mL (with regard to conjugate) solution of each test compound was prepared with 10 mM PBS buffer (pH=7.4) in Millipore Amicon® Ultra-0.5 ml 30 k Ultrafiltration centrifuge tube. The solution was kept swelling for 1 h at room temperature and then placed in a shaker at 100 rpm, 37° C. for continuous experiment. At the same time point of each day, samples were centrifuged at 10000 rpm for 1 h. The aliquot was transferred to HPLC vial for analysis. An 0.4 mL of 10 mM PBS buffer was added into the centrifuge tube and continue the experiment.
For the HPLC analysis at each time point, the peak areas of all relevant peaks from the chromatograms were retrieved and the concentration of free drug was calculated. Average release of free drug was calculated based on the sum of free drug and numbers of experiment days. The computing equation is as below.
The sample degradation rate was calculated based on the concentration and degree of substitution (NMR) for conjugated drug with regard to the initial starting point of the experiment (at t=0). The computing equation is as below.

“Conjugate of HA and 2-((8S,9R,10S,11S,13S,14S,16R,17R)-9-fluoro-11,17-dihydroxy-10,13,16-trimethyl-3-oxo-6,7,8,9,10,11,12,13,14,15,16,17-dodecahydro-3H-cyclopenta[a]phenanthren-17-yl)-2-oxoethyl 4-aminobutanoate [Example 44]” returned a Release rate of 1.12 %/day. Regarding “Conjugate of HA and 5-aminopentyl (2-((8S,9S,10R,11S,13S,14S,17R)-11,17-dihydroxy-10,13-dimethyl-3-oxo-6,7,8,9,10,11,12,13,14,15,16,17-dodecahydro-3H-cyclopenta[a]phenanthren-17-yl)-2-oxoethyl) carbonate [Example 85]”, the Release rate was determined as 7.65 %/day. The substance “Conjugate of HA and 5-aminopentyl (2-((6S,8S,9S,10R,11S,13S,14S,17R)-11,17-dihydroxy-6,10,13-trimethyl-3-oxo-6,7,8,9,10,11,12,13,14,15,16,17-dodecahydro-3H-cyclopenta[a]phenanthren-17-yl)-2-oxoethyl) carbonate [Example 86]” returned a Release rate of 6.93 %/day. To “Conjugate of CS and 4-aminobutyl (2-((8S,9S,10R,11S,13S,14S,17R)-11,17-dihydroxy-10,13-dimethyl-3-oxo-6,7,8,9,10,11,12,13,14,15,16,17-dodecahydro-3H-cyclopenta[a]phenanthren-17-yl)-2-oxoethyl) carbonate [Example 63]” belongs 0.05 %/day; to “Conjugate of CS and 2-((6αS,6βR,7S,8αS,8βS,11αR,12αS,12βS)-6β-fluoro-7-hydroxy-6α,8α,10,10-tetramethyl-4-oxo-1,2,4,6α,6β,7,8,8α,11α,12,12α,12β-dodecahydro-8βH-naphtho[2′,1′:4,5]indeno[1,2-d][1,3]dioxol-8β-yl)-2-oxoethyl 7-azaspiro[3.5]nonane-2-carboxylate [Example 49]”, 0.42 %/day; to “Conjugate of HA and 5-aminopentyl (2-((8S,9S,10R,13S,14S,17R)-17-hydroxy-10,13-dimethyl-3,11-dioxo-6,7,8,9,10,11,12,13,14,15,16,17-dodecahydro-3H-cyclopenta[a]phenanthren-17-yl)-2-oxoethyl) carbonate [Example 89]”, 8.12 %/day. Substance “Conjugate of HA and 2-((6αS,6βR,7S,8αS,8βS,11αR,12αS,12βS)-6β-fluoro-7-hydroxy-6α,8α,10,10-tetramethyl-4-oxo-1,2,4,6α,6β,7,8,8α,11α,12,12α,12β-dodecahydro-8βH-naphtho[2′,1′:4,5]indeno[1,2-d][1,3]dioxol-8β-yl)-2-oxoethyl 2,5-diazabicyclo[2.2.1]heptane-2-carboxylate [Example 58]” gave a Release rate of 0.25 %/day.

In turn, “Conjugate of HA and 4-aminobutyl (2-((8S,9S,10R,13S,14S,17R)-17-hydroxy-10,13-dimethyl-3,11-dioxo-6,7,8,9,10,11,12,13,14,15,16,17-dodecahydro-3H-cyclopenta[a]phenanthren-17-yl)-2-oxoethyl) carbonate [Example 60]” registered a Release rate of 15.04 %/day.

Regarding “Conjugate of HA and 2-((8S,9R,10S,11S,13S,14S,16S,17R)-9-fluoro-11,17-dihydroxy-10,13,16-trimethyl-3-oxo-6,7,8,9,10,11,12,13,14,15,16,17-dodecahydro-3H-cyclopenta[a]phenanthren-17-yl)-2-oxoethyl 6-aminohexanoate [Example 84]”, the Release rate came out at 3.73 %/day. The substance “Conjugate of HA and 2-((8S,9S,10R,13S,14S,17R)-17-hydroxy-10,13-dimethyl-3,11-dioxo-2,3,6,7,8,9,10,11,12,13,14,15,16,17-tetradecahydro-1H-cyclopenta[a]phenanthren-17-yl)-2-oxoethyl 5-aminopentanoate [Example 77]” showed a Release rate of 4.81 %/day.

Consider “Conjugate of HA and 2-((8S,9S,10R,13S,14S,17R)-17-hydroxy-10,13-dimethyl-3,11-dioxo-6,7,8,9,10,11,12,13,14,15,16,17-dodecahydro-3H-cyclopenta[a]phenanthren-17-yl)-2-oxoethyl 6-aminohexanoate [Example 92]”, for which the Release rate is 8.21 %/day.

These data come from patent publication US20240398963A1 (priority 2021, published 2024).
